Test results from article PMC8137935, “Mechanosensitive channel YnaI has lipid-bound extended sensor paddles” (Communications Biology, 2021).

Biological target: the molecule itself
Test: cryo-EM structure; purified YnaI in LMNG at ~5 mg/ml, with 3 mM fluorinated Fos-Choline-8 added right before freezing; C7 symmetry imposed; 3.3 Å

B1: YnaI (natural protein, Escherichia coli, UniProt P0AEB5 1-343, looked up)
chain: MIAELFTNNALNLVIIFGSCAALILMSFWFRRGNRKRKGFLFHAVQFLIYTIIISAVGSIINYVIENYKLKFITPGVIDFICTSLIAVILTIKLFLLINQFEKQQIKKGRDITSARIMSRIIKITIIVVLVLLYGEHFGMSLSGLLTFGGIGGLAVGMAGKDILSNFFSGIMLYFDRPFSIGDWIRSPDRNIEGTVAEIGWRITKITTFDNRPLYVPNSLFSSISVENPGRMTNRRITTTIGLRYEDAAKVGVIVEAVREMLKNHPAIDQRQTLLVYFNQFADSSLNIMVYCFTKTTVWAEWLAAQQDVYLKIIDIVQSHGADFAFPSQTLYMDNITPPEQGR
notes: YnaI, Escherichia coli, full-length, UniProt P0AEB5; in the model residues of TM-2 are built as Ala and N335-R343 have no density; Homoheptamer with co-purified lipids; Cloned into pET52b; also called mechanosensitive channel YnaI; MscS homolog YnaI; source: E. coli BL21(DE3) C43, purified in LMNG (TALON, thrombin cut, TALON flow-through, Superose 6); not shown: His-tag, C-terminal, cleaved
With B1 the “stoichiometry N” value was 7.
